This experiment addresses HIV-1 Rev protein (recombinant, expressed in E. coli, refolded) (HIV-1). The experiment can be described thus: cell-based or functional assay.

Take “nucleolar protein B23.1 (recombinant, produced in E. coli) (from UniProt P13084 1-292)”: the % inhibition of temperature-dependent Rev aggregation (turbidity at 360 nm, 20 minute time point) versus molar ratio of B23 to Rev (mol B23 per mol Rev) turned out to be 1.

(Values after patent US20020115169A1.)
